{"source": "patent US20230357348A1", "about": "(AstraZeneca / MedImmune, published 2023)", "binders": {"B1": {"name": "Peptide 271 (peptide)", "peptide": "H[Aib]HGS[αMeF]TSDVSK[αMeF]LDSRAAK([γGlu-C18 diacid])D[αMeF]VQ[Aib]IANT-NH2", "modifications": "N-terminus assumed", "SMILES": "CC[C@H](C)[C@H](NC(=O)C(C)(C)NC(=O)[C@H](CCC(N)=O)NC(=O)[C@@H](NC(=O)[C@](C)(Cc1ccccc1)NC(=O)[C@H](CC(=O)O)NC(=O)[C@H](CCCCNC(=O)CC[C@H](NC(=O)CCCCCCCCCCCCCCCCC(=O)O)C(=O)O)NC(=O)[C@H](C)NC(=O)[C@H](C)NC(=O)[C@H](CCCNC(=N)N)NC(=O)[C@H](CO)NC(=O)[C@H](CC(=O)O)NC(=O)[C@H](CC(C)C)NC(=O)[C@](C)(Cc1ccccc1)NC(=O)[C@H](CCCCN)NC(=O)[C@H](CO)NC(=O)[C@@H](NC(=O)[C@H](CC(=O)O)NC(=O)[C@H](CO)NC(=O)[C@@H](NC(=O)[C@](C)(Cc1ccccc1)NC(=O)[C@H](CO)NC(=O)CNC(=O)[C@H](Cc1c[nH]cn1)NC(=O)C(C)(C)NC(=O)[C@@H](N)Cc1c[nH]cn1)[C@@H](C)O)C(C)C)C(C)C)C(=O)N[C@@H](C)C(=O)N[C@@H](CC(N)=O)C(=O)N[C@H](C(N)=O)[C@@H](C)O"}, "B2": {"name": "Peptide 268 (peptide)", "peptide": "H[Aib]HGS[αMeF]TSDVSK[αMeF]LDSRAAK([AEEA-γGlu-C20 diacid])D[αMeF]VQ[Aib]IANT-NH2", "modifications": "N-terminus assumed", "SMILES": "CC[C@H](C)[C@H](NC(=O)C(C)(C)NC(=O)[C@H](CCC(N)=O)NC(=O)[C@@H](NC(=O)[C@](C)(Cc1ccccc1)NC(=O)[C@H](CC(=O)O)NC(=O)[C@H](CCCCNC(=O)COCCOCCNC(=O)CC[C@H](NC(=O)CCCCCCCCCCCCCCCCCCC(=O)O)C(=O)O)NC(=O)[C@H](C)NC(=O)[C@H](C)NC(=O)[C@H](CCCNC(=N)N)NC(=O)[C@H](CO)NC(=O)[C@H](CC(=O)O)NC(=O)[C@H](CC(C)C)NC(=O)[C@](C)(Cc1ccccc1)NC(=O)[C@H](CCCCN)NC(=O)[C@H](CO)NC(=O)[C@@H](NC(=O)[C@H](CC(=O)O)NC(=O)[C@H](CO)NC(=O)[C@@H](NC(=O)[C@](C)(Cc1ccccc1)NC(=O)[C@H](CO)NC(=O)CNC(=O)[C@H](Cc1c[nH]cn1)NC(=O)C(C)(C)NC(=O)[C@@H](N)Cc1c[nH]cn1)[C@@H](C)O)C(C)C)C(C)C)C(=O)N[C@@H](C)C(=O)N[C@@H](CC(N)=O)C(=O)N[C@H](C(N)=O)[C@@H](C)O"}}, "note": "Starred links: 1 amine or outer side, 2 acyl side, 3 side chain; linkers in the order of their positions; H or OH if unused. Non-standard residues stand in square brackets, D forms with d. Groups on a side chain read outwards from the residue. Primed or numbered codes have the meaning given here. No end group written: not given here. *: point of attachment. C20 diacid = O=C(O)CCCCCCCCCCCCCCCCCCC(=O)*; C18 diacid = O=C(O)CCCCCCCCCCCCCCCCC(=O)*; γGlu = O=C(O)[C@H](CCC(=O)[*:2])N[*:1]; αMeF = C[C@](N)(Cc1ccccc1)C(=O)O; PEG4 = NCCOCCOCCOCCOCCC(=O)O; PEG4′ = polyethylene glycol; AEEA = NCCOCCOCC(=O)O; Aib = CC(C)(N)C(=O)O", "data": [{"biological_target": "human GLP-1 receptor (human, UniProt P43220 24-463)", "experiment": "cell-based or functional assay", "units": {"hGLP-1R EC50 (pM), cAMP": "pM"}, "values": [{"binder": "B1", "hGLP-1R EC50 (pM), cAMP": 54.6}, {"binder": "H[Aib]HGS[αMeF]TSDVSK[αMeF]LDSRAAK([γGlu-γGlu-C18 diacid])D[αMeF]VQ[Aib]IANT-NH2", "note": "[Peptide 270]", "hGLP-1R EC50 (pM), cAMP": 24.4}, {"binder": "B2", "hGLP-1R EC50 (pM), cAMP": 39.5}, {"binder": "HSHGS[αMeF]TSDVSK[αMeF]LDSRAAK([AEEA-AEEA-γGlu-C18 diacid])D[αMeF]VQ[Aib]IANT-NH2 (not fully specified; also: S2: Aib per table)", "note": "[Peptide 285]", "hGLP-1R EC50 (pM), cAMP": 301}, {"binder": "H[Aib]HGS[αMeF]TSDVSKYLDSRAAK([AEEA-AEEA-γGlu-γGlu-C20 diacid])D[αMeF]VQ[Aib]IANT-NH2 (also: F6: αMePhe per table, X13: αMePhe, Y per table)", "note": "[Peptide 283]", "hGLP-1R EC50 (pM), cAMP": 129}, {"binder": "H[Aib]HGS[αMeF]TSDVSK[αMeF]LDSRAAK([γGlu-C20 diacid])D[αMeF]VQ[Aib]IANT-NH2", "note": "[Peptide 276]", "hGLP-1R EC50 (pM), cAMP": 143}, {"binder": "H[Aib]HGS[αMeF]TSDVSK[αMeF]LDSRAAK([AEEA-AEEA-C20 diacid])D[αMeF]VQ[Aib]IANT-NH2", "note": "[Peptide 277]", "hGLP-1R EC50 (pM), cAMP": 49.5}, {"binder": "H[Aib]HGS[αMeF]TSDVSKYLDSRAAK([AEEA-AEEA-γGlu-C18 diacid])D[αMeF]VQ[Aib]IANT-NH2 (also: F6: αMePhe per table, X13: αMePhe, Y per table)", "note": "[Peptide 286]", "hGLP-1R EC50 (pM), cAMP": 31.6}, {"binder": "H[Aib]HGS[αMeF]TSDVSK[αMeF]LDSRAAK([PEG4′-γGlu-γGlu-C20 diacid])D[αMeF]VQ[Aib]IANT-NH2", "note": "[Peptide 269]", "hGLP-1R EC50 (pM), cAMP": 52}, {"binder": "H[Aib]HGS[αMeF]TSDVSK[αMeF]LDSRAAK([AEEA-γGlu-γGlu-C20 diacid])D[αMeF]VQ[Aib]IANT-NH2", "note": "[Peptide 279]", "hGLP-1R EC50 (pM), cAMP": 86.5}, {"binder": "H[Aib]HGS[αMeF]TSDVSK[αMeF]LDSRAAK([AEEA-γGlu-γGlu-C18 diacid])D[αMeF]VQ[Aib]IANT-NH2", "note": "[Peptide 274]", "hGLP-1R EC50 (pM), cAMP": 27.1}, {"binder": "H[Aib]HGS[αMeF]TSDVSK[αMeF]LDSRAAK([AEEA-C18 diacid])D[αMeF]VQ[Aib]IANT-NH2", "note": "[Peptide 273]", "hGLP-1R EC50 (pM), cAMP": 22.1}, {"binder": "H[Aib]HGS[αMeF]TSDVSK[αMeF]LDSRAAK([AEEA-AEEA-γGlu-γGlu-C20 diacid])D[αMeF]VQ[Aib]IANT-NH2 (also: S2: Aib per table, X6: αMePhe, F per table)", "note": "[Peptide 282]", "hGLP-1R EC50 (pM), cAMP": 1230}, {"binder": "H[Aib]HGS[αMeF]TSDVSK[αMeF]LDSRAAK([AEEA-AEEA-C18 diacid])D[αMeF]VQ[Aib]IANT-NH2", "note": "[Peptide 272]", "hGLP-1R EC50 (pM), cAMP": 15.7}, {"binder": "H[Aib]HGS[αMeF]TSDVSK[αMeF]LDSRAAK([γGlu-γGlu-C20 diacid])D[αMeF]VQ[Aib]IANT-NH2", "note": "[Peptide 275]", "hGLP-1R EC50 (pM), cAMP": 111}, {"binder": "H[Aib]HGS[αMeF]TSDVSK[αMeF]LDSRAAK([AEEA-AEEA-γGlu-C20 diacid])D[αMeF]VQ[Aib]IANT-NH2", "note": "[Peptide 280]", "hGLP-1R EC50 (pM), cAMP": 78.3}, {"binder": "H[Aib]HGS[αMeF]TSDVSK[αMeF]LDSRAAK([AEEA-C20 diacid])D[αMeF]VQ[Aib]IANT-NH2", "note": "[Peptide 278]", "hGLP-1R EC50 (pM), cAMP": 78.9}, {"binder": "H[Aib]HGS[αMeF]TSDVSK[αMeF]LDSRAAK([PEG4-γGlu-C20 diacid])D[αMeF]VQ[Aib]IANT-NH2", "note": "[Peptide 267]", "hGLP-1R EC50 (pM), cAMP": 65.6}]}, {"biological_target": "human glucagon receptor (human, UniProt P47871 26-477)", "sequence (P47871 26-477)": "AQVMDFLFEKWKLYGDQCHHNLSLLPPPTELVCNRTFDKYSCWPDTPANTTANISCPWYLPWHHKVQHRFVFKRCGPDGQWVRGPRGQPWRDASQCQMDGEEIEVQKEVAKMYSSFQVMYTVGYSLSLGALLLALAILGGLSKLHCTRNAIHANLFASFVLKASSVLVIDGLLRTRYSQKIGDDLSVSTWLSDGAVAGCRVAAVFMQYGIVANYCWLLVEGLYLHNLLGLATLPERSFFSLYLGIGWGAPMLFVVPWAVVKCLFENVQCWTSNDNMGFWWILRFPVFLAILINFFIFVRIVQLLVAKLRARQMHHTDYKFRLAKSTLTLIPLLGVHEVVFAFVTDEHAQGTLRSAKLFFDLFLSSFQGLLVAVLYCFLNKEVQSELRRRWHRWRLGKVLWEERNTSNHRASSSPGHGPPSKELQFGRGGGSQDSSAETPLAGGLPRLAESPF", "experiment": "cell-based or functional assay", "units": {"hGluc-R EC50 (pM), cAMP": "pM"}, "values": [{"binder": "B1", "hGluc-R EC50 (pM), cAMP": 28}, {"binder": "H[Aib]HGS[αMeF]TSDVSK[αMeF]LDSRAAK([γGlu-γGlu-C18 diacid])D[αMeF]VQ[Aib]IANT-NH2", "note": "[Peptide 270]", "hGluc-R EC50 (pM), cAMP": 31.3}, {"binder": "B2", "hGluc-R EC50 (pM), cAMP": 29.3}, {"binder": "HSHGS[αMeF]TSDVSK[αMeF]LDSRAAK([AEEA-AEEA-γGlu-C18 diacid])D[αMeF]VQ[Aib]IANT-NH2 (not fully specified; also: S2: Aib per table)", "note": "[Peptide 285]", "hGluc-R EC50 (pM), cAMP": 87}, {"binder": "H[Aib]HGS[αMeF]TSDVSKYLDSRAAK([AEEA-AEEA-γGlu-γGlu-C20 diacid])D[αMeF]VQ[Aib]IANT-NH2 (also: F6: αMePhe per table, X13: αMePhe, Y per table)", "note": "[Peptide 283]", "hGluc-R EC50 (pM), cAMP": 552}, {"binder": "H[Aib]HGS[αMeF]TSDVSK[αMeF]LDSRAAK([γGlu-C20 diacid])D[αMeF]VQ[Aib]IANT-NH2", "note": "[Peptide 276]", "hGluc-R EC50 (pM), cAMP": 91.4}, {"binder": "H[Aib]HGS[αMeF]TSDVSK[αMeF]LDSRAAK([AEEA-AEEA-C20 diacid])D[αMeF]VQ[Aib]IANT-NH2", "note": "[Peptide 277]", "hGluc-R EC50 (pM), cAMP": 57.3}, {"binder": "H[Aib]HGS[αMeF]TSDVSKYLDSRAAK([AEEA-AEEA-γGlu-C18 diacid])D[αMeF]VQ[Aib]IANT-NH2 (also: F6: αMePhe per table, X13: αMePhe, Y per table)", "note": "[Peptide 286]", "hGluc-R EC50 (pM), cAMP": 53}, {"binder": "H[Aib]HGS[αMeF]TSDVSK[αMeF]LDSRAAK([PEG4′-γGlu-γGlu-C20 diacid])D[αMeF]VQ[Aib]IANT-NH2", "note": "[Peptide 269]", "hGluc-R EC50 (pM), cAMP": 271}, {"binder": "H[Aib]HGS[αMeF]TSDVSK[αMeF]LDSRAAK([AEEA-γGlu-γGlu-C20 diacid])D[αMeF]VQ[Aib]IANT-NH2", "note": "[Peptide 279]", "hGluc-R EC50 (pM), cAMP": 150}, {"binder": "H[Aib]HGS[αMeF]TSDVSK[αMeF]LDSRAAK([AEEA-γGlu-γGlu-C18 diacid])D[αMeF]VQ[Aib]IANT-NH2", "note": "[Peptide 274]", "hGluc-R EC50 (pM), cAMP": 31.3}, {"binder": "H[Aib]HGS[αMeF]TSDVSK[αMeF]LDSRAAK([AEEA-C18 diacid])D[αMeF]VQ[Aib]IANT-NH2", "note": "[Peptide 273]", "hGluc-R EC50 (pM), cAMP": 23.3}, {"binder": "H[Aib]HGS[αMeF]TSDVSK[αMeF]LDSRAAK([AEEA-AEEA-γGlu-γGlu-C20 diacid])D[αMeF]VQ[Aib]IANT-NH2 (also: S2: Aib per table, X6: αMePhe, F per table)", "note": "[Peptide 282]", "hGluc-R EC50 (pM), cAMP": 1140}, {"binder": "H[Aib]HGS[αMeF]TSDVSK[αMeF]LDSRAAK([AEEA-AEEA-C18 diacid])D[αMeF]VQ[Aib]IANT-NH2", "note": "[Peptide 272]", "hGluc-R EC50 (pM), cAMP": 14.3}, {"binder": "H[Aib]HGS[αMeF]TSDVSK[αMeF]LDSRAAK([γGlu-γGlu-C20 diacid])D[αMeF]VQ[Aib]IANT-NH2", "note": "[Peptide 275]", "hGluc-R EC50 (pM), cAMP": 175}, {"binder": "H[Aib]HGS[αMeF]TSDVSK[αMeF]LDSRAAK([AEEA-AEEA-γGlu-C20 diacid])D[αMeF]VQ[Aib]IANT-NH2", "note": "[Peptide 280]", "hGluc-R EC50 (pM), cAMP": 155}, {"binder": "H[Aib]HGS[αMeF]TSDVSK[αMeF]LDSRAAK([AEEA-C20 diacid])D[αMeF]VQ[Aib]IANT-NH2", "note": "[Peptide 278]", "hGluc-R EC50 (pM), cAMP": 83.5}, {"binder": "H[Aib]HGS[αMeF]TSDVSK[αMeF]LDSRAAK([PEG4-γGlu-C20 diacid])D[αMeF]VQ[Aib]IANT-NH2", "note": "[Peptide 267]", "hGluc-R EC50 (pM), cAMP": 128}]}]}
